Reference: the supplement of paper PMC9112550, “Optimization of the antimicrobial peptide Bac7 by deep mutational scanning” (BMC Biology, 2022)

System: Escherichia coli TOP10
Assay: shrunken log2 fold change of peptide-encoding DNA abundance (4.5 h post-induction vs induction); higher = less antimicrobial activity (less host growth inhibition)
Settings: time post-induction: 4.5 h; library: site-saturation at positions 5, 18, 19, 20
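Further: peptides expressed intracellularly from a pBAD plasmid library in pooled LB shake-flask culture, induced with 0.3% L-arabinose, DNA abundance read by NGS, three biological replicates, DESeq2 with apeglm shrinkage.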

Row | Sequence | shrunken log2 fold change
1 | RRIRPRPPRLPRPRPRPTKQPRP | 0.169
2 | RRIRPRPPRLPRPRPRPTLAPRP | 0.332
3 | RRIRPRPPRLPRPRPRPTLMPRP | 0.227
4 | RRIRPRPPRLPRPRPRPTMAPRP | 0.502
5 | RRIRPRPPRLPRPRPRPTPNPRP | 0.579
6 | RRIRPRPPRLPRPRPRPTQDPRP | 0.833
7 | RRIRPRPPRLPRPRPRPTQKPRP | 0.0334
8 | RRIRPRPPRLPRPRPRPTQQPRP | 0.827
9 | RRIRPRPPRLPRPRPRPTQRPRP | 0.369
10 | RRIRPRPPRLPRPRPRPTRRPRP | 0.591
11 | RRIRPRPPRLPRPRPRPTTCPRP | 0.262
12 | RRIRPRPPRLPRPRPRPTTGPRP | 0.12
13 | RRIRPRPPRLPRPRPRPTWEPRP | 0.659
14 | RRIRPRPPRLPRPRPRPTWRPRP | 0.639
15 | RRIRPRPPRLPRPRPRPTYQPRP | -0.0514
16 | RRIRPRPPRLPRPRPRPVADPRP | 0.295
17 | RRIRPRPPRLPRPRPRPVAHPRP | 0.0324
18 | RRIRPRPPRLPRPRPRPVATPRP | 0.524
19 | RRIRPRPPRLPRPRPRPVAVPRP | 0.143
20 | RRIRPRPPRLPRPRPRPVCKPRP | 0.0717
21 | RRIRPRPPRLPRPRPRPVEKPRP | 0.00127
22 | RRIRPRPPRLPRPRPRPVELPRP | -0.0271
23 | RRIRPRPPRLPRPRPRPVETPRP | -0.158
24 | RRIRPRPPRLPRPRPRPVGQPRP | 0.102
25 | RRIRPRPPRLPRPRPRPVLKPRP | -0.267

Row | Sequence | shrunken log2 fold change
26 | RRIRPRPPRLPRPRPRPVLVPRP | 0.0376
27 | RRIRPRPPRLPRPRPRPVNGPRP | 0.0391
28 | RRIRPRPPRLPRPRPRPVNMPRP | 0.0158
29 | RRIRPRPPRLPRPRPRPVPAPRP | 0.361
30 | RRIRPRPPRLPRPRPRPVPGPRP | 0.202
31 | RRIRPRPPRLPRPRPRPVPWPRP | 0.548
32 | RRIRPRPPRLPRPRPRPVQLPRP | -0.135
33 | RRIRPRPPRLPRPRPRPVRNPRP | 0.22
34 | RRIRPRPPRLPRPRPRPVSEPRP | -0.0288
35 | RRIRPRPPRLPRPRPRPVSIPRP | -0.271
36 | RRIRPRPPRLPRPRPRPVTNPRP | -0.299
37 | RRIRPRPPRLPRPRPRPVVVPRP | -0.0997
38 | RRIRPRPPRLPRPRPRPVWFPRP | 0.0968
39 | RRIRPRPPRLPRPRPRPVWQPRP | 0.23
40 | RRIRPRPPRLPRPRPRPVWRPRP | 0.516
41 | RRIRPRPPRLPRPRPRPVYIPRP | -0.684
42 | RRIRPRPPRLPRPRPRPWAAPRP | 0.126
43 | RRIRPRPPRLPRPRPRPWDYPRP | -0.19
44 | RRIRPRPPRLPRPRPRPWEKPRP | -0.106
45 | RRIRPRPPRLPRPRPRPWGWPRP | 0.149
46 | RRIRPRPPRLPRPRPRPWHHPRP | -0.209
47 | RRIRPRPPRLPRPRPRPWHIPRP | -0.0921
48 | RRIRPRPPRLPRPRPRPWHRPRP | -0.156
49 | RRIRPRPPRLPRPRPRPWKTPRP | -0.225
50 | RRIRPRPPRLPRPRPRPWKWPRP | 0.423

Row | Sequence | shrunken log2 fold change
51 | RRIRPRPPRLPRPRPRPWLNPRP | -0.541
52 | RRIRPRPPRLPRPRPRPWNFPRP | -0.205
53 | RRIRPRPPRLPRPRPRPWRHPRP | -0.0659
54 | RRIRPRPPRLPRPRPRPWSGPRP | 0.000793
55 | RRIRPRPPRLPRPRPRPWSNPRP | -0.52
56 | RRIRPRPPRLPRPRPRPWTPPRP | 0.0256
57 | RRIRPRPPRLPRPRPRPWWAPRP | 0.00677
58 | RRIRPRPPRLPRPRPRPWWGPRP | -0.0751
59 | RRIRPRPPRLPRPRPRPWWTPRP | -0.311
60 | RRIRPRPPRLPRPRPRPWYIPRP | -0.472
61 | RRIRPRPPRLPRPRPRPWYYPRP | -0.102
62 | RRIRPRPPRLPRPRPRPYAFPRP | -0.264
63 | RRIRPRPPRLPRPRPRPYANPRP | -0.231
64 | RRIRPRPPRLPRPRPRPYCGPRP | -0.148
65 | RRIRPRPPRLPRPRPRPYDAPRP | -0.0642
66 | RRIRPRPPRLPRPRPRPYDIPRP | -0.88
67 | RRIRPRPPRLPRPRPRPYENPRP | -0.66
68 | RRIRPRPPRLPRPRPRPYETPRP | -0.106
69 | RRIRPRPPRLPRPRPRPYFLPRP | -0.614
70 | RRIRPRPPRLPRPRPRPYGKPRP | -0.307
71 | RRIRPRPPRLPRPRPRPYICPRP | -0.149
72 | RRIRPRPPRLPRPRPRPYIGPRP | -0.184
73 | RRIRPRPPRLPRPRPRPYLPPRP | -0.431
74 | RRIRPRPPRLPRPRPRPYLSPRP | -0.509
75 | RRIRPRPPRLPRPRPRPYNKPRP | -1.16

Row | Sequence | shrunken log2 fold change
76 | RRIRPRPPRLPRPRPRPYNYPRP | -0.446
77 | RRIRPRPPRLPRPRPRPYPSPRP | -0.65
78 | RRIRPRPPRLPRPRPRPYSRPRP | -0.368
79 | RRIRPRPPRLPRPRPRPYTNPRP | -0.709
80 | RRIRPRPPRLPRPRPRPYTVPRP | -0.947
81 | RRIRPRPPRLPRPRPRPYVYPRP | -0.636
82 | RRIRPRPPRLPRPRPRPYWLPRP | -0.377
83 | RRIRQRPPRLPRPRPRPAALPRP | 0.247
84 | RRIRQRPPRLPRPRPRPAATPRP | 0.732
85 | RRIRQRPPRLPRPRPRPAAWPRP | 0.245
86 | RRIRQRPPRLPRPRPRPACSPRP | 0.125
87 | RRIRQRPPRLPRPRPRPAEGPRP | 0.045
88 | RRIRQRPPRLPRPRPRPAEVPRP | 0.142
89 | RRIRQRPPRLPRPRPRPAFPPRP | 0.0799
90 | RRIRQRPPRLPRPRPRPAFTPRP | -0.00944
91 | RRIRQRPPRLPRPRPRPAGYPRP | -0.101
92 | RRIRQRPPRLPRPRPRPAIIPRP | -0.0528
93 | RRIRQRPPRLPRPRPRPAIYPRP | -0.0621
94 | RRIRQRPPRLPRPRPRPALGPRP | 0.563
95 | RRIRQRPPRLPRPRPRPAMRPRP | 0.718
96 | RRIRQRPPRLPRPRPRPANGPRP | 0.184
97 | RRIRQRPPRLPRPRPRPANWPRP | 0.431
98 | RRIRQRPPRLPRPRPRPAQIPRP | 0.028
99 | RRIRQRPPRLPRPRPRPAQLPRP | 0.0104
100 | RRIRQRPPRLPRPRPRPAQPPRP | 0.187

Row | Sequence | shrunken log2 fold change
101 | RRIRQRPPRLPRPRPRPARAPRP | 1.22
102 | RRIRQRPPRLPRPRPRPARMPRP | 0.195
103 | RRIRQRPPRLPRPRPRPARNPRP | 0.298
104 | RRIRQRPPRLPRPRPRPASYPRP | -0.121
105 | RRIRQRPPRLPRPRPRPATFPRP | 0.157
106 | RRIRQRPPRLPRPRPRPAVGPRP | 0.0738
107 | RRIRQRPPRLPRPRPRPAWCPRP | 0.0518
108 | RRIRQRPPRLPRPRPRPAWVPRP | 0.0382
109 | RRIRQRPPRLPRPRPRPAYTPRP | 0.0569
110 | RRIRQRPPRLPRPRPRPAYVPRP | -0.0582
111 | RRIRQRPPRLPRPRPRPAYWPRP | 0.128
112 | RRIRQRPPRLPRPRPRPAYYPRP | -0.514
113 | RRIRQRPPRLPRPRPRPCACPRP | 0.0128
114 | RRIRQRPPRLPRPRPRPCALPRP | 0.0342
115 | RRIRQRPPRLPRPRPRPCCCPRP | 0.0589
116 | RRIRQRPPRLPRPRPRPCCWPRP | 0.0955
117 | RRIRQRPPRLPRPRPRPCDAPRP | -0.027
118 | RRIRQRPPRLPRPRPRPCEHPRP | 0.0413
119 | RRIRQRPPRLPRPRPRPCGEPRP | -0.0396
120 | RRIRQRPPRLPRPRPRPCHEPRP | -0.0663
121 | RRIRQRPPRLPRPRPRPCHVPRP | -0.167
122 | RRIRQRPPRLPRPRPRPCKKPRP | 0.0212
123 | RRIRQRPPRLPRPRPRPCKNPRP | -0.409
124 | RRIRQRPPRLPRPRPRPCLIPRP | -0.0017
125 | RRIRQRPPRLPRPRPRPCPMPRP | -0.203

Row | Sequence | shrunken log2 fold change
126 | RRIRQRPPRLPRPRPRPCSLPRP | -1.03
127 | RRIRQRPPRLPRPRPRPCSQPRP | -0.018
128 | RRIRQRPPRLPRPRPRPCSSPRP | -0.0115
129 | RRIRQRPPRLPRPRPRPCTAPRP | 0.139
130 | RRIRQRPPRLPRPRPRPCWEPRP | -0.126
131 | RRIRQRPPRLPRPRPRPCWNPRP | -0.13
132 | RRIRQRPPRLPRPRPRPCWQPRP | -0.0325
133 | RRIRQRPPRLPRPRPRPCWRPRP | -0.0087
134 | RRIRQRPPRLPRPRPRPCYGPRP | -0.0796
135 | RRIRQRPPRLPRPRPRPCYLPRP | -0.195
136 | RRIRQRPPRLPRPRPRPCYMPRP | -0.832
137 | RRIRQRPPRLPRPRPRPCYPPRP | -1.5
138 | RRIRQRPPRLPRPRPRPCYTPRP | -0.149
139 | RRIRQRPPRLPRPRPRPDCFPRP | 0.291
140 | RRIRQRPPRLPRPRPRPDDAPRP | -0.0705
141 | RRIRQRPPRLPRPRPRPDFWPRP | 0.0103
142 | RRIRQRPPRLPRPRPRPDHRPRP | 0.083
143 | RRIRQRPPRLPRPRPRPDIAPRP | 0.111
144 | RRIRQRPPRLPRPRPRPDIDPRP | -0.078
145 | RRIRQRPPRLPRPRPRPDIIPRP | -0.0199
146 | RRIRQRPPRLPRPRPRPDITPRP | -0.00487
147 | RRIRQRPPRLPRPRPRPDIWPRP | -0.214
148 | RRIRQRPPRLPRPRPRPDKLPRP | -0.522
149 | RRIRQRPPRLPRPRPRPDKYPRP | -0.0227
150 | RRIRQRPPRLPRPRPRPDMMPRP | 0.142
